Where a chain is given by its changes, count along the chain named.
B1: SC27.204 mouse monoclonal anti-CLDN antibody (antibody, V domains shown)
VH: EVKVLESGGGLVQPGGSLKLSCAASGFDFSRYWMSWVRQAPGKGLEWIGEINPDSSTINYTPSLKAKFIISRDNAKNTLYLQMSKVRSEDTALYYCTGPAYWGQGTLVTVSA
VL: DIVMTQSQKFMSTSVGDRVSVACKAGQNVGTSVAWYQQKPGHSPKSLIYSASYRYSGVPNRFTGSGSGTDFTLTISNVQSEDLADYFCQQYITYPYTFGGGTKLEII
B2: SC27.105 mouse monoclonal anti-CLDN antibody (antibody, V domains shown)
VH: EVQLQQSGPELVKPGASVKISCKASGYSFTGYYMNWVKQSPEKSLEWIGEINPSTGSTTYNQKFKAKATLTVDKSSSTAYMQLKSLTSEDSAVYYCARRDYYYGSGFYAMDYWGQGTSVTVSS
VL: DVQMTQSPSSLSASLGERVSLTCQASQSVSNNLNWYQQTPGKAPRLLIYGASKLEDGVSSRFSGTGYGTDFTFTISSLEEEDVATYFCLQHRYLWTFGGGTKLEIK
B3: SC27.108 mouse monoclonal anti-CLDN antibody (antibody, V domains shown)
VH: QVQMQQSGAELVRPGTSVKVSCKASGYAFTNYLIEWVKQRPGQGLEWIGLINPGSGGTNYNEKFKGKATLTADKSSTTAYMQLSSLTSDDSAVYFCARRSPLGSWIYYAYDGVAYWGQGTLVTVSA
VL: EIVLTQSPALMAASPGEKVTITCSVSSSISSSNLHWYQQKSGTSPKLWIYGTSNLASGVPVRFSGSGSGTSYSLTISNMEAEDAATYYCQQWSSYPHTFGGGTKLEIK
notes: also called SC27.109 (identical)
B4: SC27.201 mouse monoclonal anti-CLDN antibody (antibody, V domains shown)
VL: DIQMTQSSSSFSVSLGDRVTITCKASEDIYNRLAWYQQKPGNAPRLLISGATSLEAGVPSGFSGSGSGKDYTLSITSLQTEDVATYYCQQYWSTPPTFGGGTKLELK
V domain: EVQLQQSGPELVKPGASVKISCKTSGYTFTENIRHWVKQSRGKSLEWIGTINPNNGETRYNQKFKGKATLTVDKSSSTAYMELRSLTSEDSAVYYCTRGITKSPYGMDYWGQGTSITVSS
B5: SC27.104 mouse monoclonal anti-CLDN antibody (antibody, V domains shown)
VH: EVQLQQSGPELVKPGASVKISCKTSGYTFTEYTVHWVKQSHGKSLEWIGGVYPKNGDTTYNQKFRGKATLTVDKSSNTAYMELRSLTSEDSAVYYCTGKDGYDGFAYWGQGTLVTVSA
VL: B4 VL with A56T, G61R, T94N, L106I
B6: SC27.106 (antibody, V domains shown)
VH: EVQLQQSGPELVKPGASVKISCKTSGYTFTEYTMHWVKQSHGKSLEWIGGINPNNGGTNYNQKFKGKATLTVDKSSSTAYMELRSLTSEDSAVYYCARRLITYYAMDYWGQGTSVTVSS
VL: B4 VL with S49C, A56T, G61R, P96L, G100A
notes: also called SC27.106 mouse monoclonal anti-CLDN antibody
B7: SC27.203 (antibody, V domains shown)
VH: B4 V domain with R34I, R41H, T50G, N54I, E57G, R59S, T97A, K102T, G106A, I116V
VL: B4 VL with K39N, A43T, I48M, A56T, G61R, T80I, A84S, K103R, L106I
notes: also called SC27.203 mouse monoclonal anti-CLDN antibody

What was measured:
human CLDN6 protein [1] = biological target: T1, human CLDN6 protein (human, UniProt P56747 1-220); test: flow cytometry on cells overexpressing human CLDN6; 10 µg/mL control antibody, Alexa 647 anti-mouse secondary; single point
T1 sequence (looked up): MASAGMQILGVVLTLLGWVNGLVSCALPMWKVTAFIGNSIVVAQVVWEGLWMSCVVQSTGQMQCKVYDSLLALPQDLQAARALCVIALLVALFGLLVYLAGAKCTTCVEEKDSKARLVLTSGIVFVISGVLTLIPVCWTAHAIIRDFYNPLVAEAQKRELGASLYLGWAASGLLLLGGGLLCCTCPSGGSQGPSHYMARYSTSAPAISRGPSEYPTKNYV

human CLDN4 protein [2] = biological target: T2, human CLDN4 protein (human, UniProt O14493 1-209); test: flow cytometry on cells overexpressing human CLDN4; 10 µg/mL control antibody, Alexa 647 anti-mouse secondary; single point
T2 sequence (looked up): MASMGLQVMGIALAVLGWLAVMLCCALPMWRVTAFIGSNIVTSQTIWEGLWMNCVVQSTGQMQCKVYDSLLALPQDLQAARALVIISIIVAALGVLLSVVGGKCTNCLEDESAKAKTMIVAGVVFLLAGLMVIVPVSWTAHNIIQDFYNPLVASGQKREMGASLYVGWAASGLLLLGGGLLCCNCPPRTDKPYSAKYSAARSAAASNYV

human CLDN9 protein [3] = biological target: T3, human CLDN9 protein (human, UniProt O95484 1-217); test: flow cytometry on cells overexpressing human CLDN9; 10 µg/mL control antibody, Alexa 647 anti-mouse secondary; single point
T3 sequence (looked up): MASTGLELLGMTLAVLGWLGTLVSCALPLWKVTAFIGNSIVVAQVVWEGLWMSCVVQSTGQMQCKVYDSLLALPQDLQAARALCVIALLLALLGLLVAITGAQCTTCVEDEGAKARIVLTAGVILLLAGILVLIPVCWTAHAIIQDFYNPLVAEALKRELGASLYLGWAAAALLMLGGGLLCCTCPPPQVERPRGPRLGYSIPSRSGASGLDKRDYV

human CLDN6 protein [4] = biological target: T1, human CLDN6 protein; test: flow cytometry on cells overexpressing human CLDN6; 10 µg/mL purified antibody, Alexa 647 anti-mouse secondary; single point
human CLDN9 protein [5] = biological target: T3, human CLDN9 protein; test: flow cytometry on cells overexpressing human CLDN9; 10 µg/mL purified antibody, Alexa 647 anti-mouse secondary; single point
human CLDN9 protein [6] = biological target: T3, human CLDN9 protein; test: cell-based or functional assay
human CLDN6 protein [7] = biological target: T1, human CLDN6 protein; test: cell-based or functional assay
human CLDN4 protein [8] = biological target: T2, human CLDN4 protein; test: flow cytometry on cells overexpressing human CLDN4; Alexa 647 anti-mouse secondary; single point
human CLDN4 protein [9] = biological target: T2, human CLDN4 protein; test: flow cytometry on cells overexpressing human CLDN4; 10 µg/mL purified antibody, Alexa 647 anti-mouse secondary; single point
human CLDN9 protein [10] = biological target: T3, human CLDN9 protein; test: flow cytometry on cells overexpressing human CLDN9; Alexa 647 anti-mouse secondary; single point
human CLDN6 protein [11] = biological target: T1, human CLDN6 protein; test: cell-based or functional assay; remark: listed apart in the source
human CLDN4 protein [12] = biological target: T2, human CLDN4 protein; test: cell-based or functional assay

Molecule | MFI (human CLDN6 protein [1]) | MFI (human CLDN4 protein [2]) | MFI (human CLDN9 protein [3]) | MFI (human CLDN6 protein [4]) | MFI (human CLDN9 protein [5]) | apparent IC50 of killing of HEK-293T cells overexpressing hCLDN9; antibody titrated 0.15 to 1000 nM with anti-mouse IgG Fab-saporin, CellTiter-Glo (human CLDN9 protein [6]) [nM] | apparent IC50 of killing of HEK-293T cells overexpressing hCLDN6; antibody titrated 0.15 to 1000 nM with anti-mouse IgG Fab-saporin, CellTiter-Glo (human CLDN6 protein [7]) [nM] | binding result (human CLDN4 protein [8]) | MFI (human CLDN4 protein [9]) | binding result (human CLDN9 protein [10]) | apparent IC50 of saporin-mediated cell killing (human CLDN6 protein [11]) [nM] | apparent IC50 of killing of HEK-293T cells overexpressing hCLDN4; antibody titrated 0.15 to 1000 nM with anti-mouse IgG Fab-saporin, CellTiter-Glo (human CLDN4 protein [12]) [nM]
mIgG2b control (antibody) | 84 | 73 | 81 |  |  |  |  |  |  |  |  | 
B1 |  |  |  | 106000 | 23000 | 16.9 | 25.2 | no binding (tested: 10 µg/mL) | 79 |  |  | 
B2 |  |  |  | 83000 | 80 |  | 235 | no binding (tested: 10 µg/mL) | 69 | no binding (tested: 10 µg/mL) |  | 
B3 |  |  |  | 99700 | 86 |  | 102 | no binding (tested: 10 µg/mL) | 88 | no binding (tested: 10 µg/mL) | 100 | 
B4 |  |  |  | 29900 | 7100 | 155 | 48.2 |  | 23100 |  |  | 69.7
B5 |  |  |  | 39200 | 7230 |  | 284 |  | 22600 |  |  | 969
B6 |  |  |  | 55800 | 595 |  |  |  | 1990 |  |  | 
B7 |  |  |  | 47400 | 587 |  |  |  | 2980 |  |  | 
